Assay results reported in article PMC5708649 (PLoS ONE, 2017).

B1: tynorphin (peptide)
peptide: VVYPW
notes: also called VVYPW; pentapeptide tynorphin

Target: inactive E433A variant of full-length PgDPP III (Porphyromonas gingivalis W83, UniProt Q7MX92 1-886, E433A)
Assay: ITC
Conditions: both partners purified

Binder | binding result
B1 | binds
IVYPW | binds
